Reference: paper PMC7672443, “Structural basis of the XPB helicase–Bax1 nuclease complex interacting with the repair bubble DNA” (Nucleic Acids Research, 2020)

Assays:
StXPB-Bax1^ΔC = target: T1, StXPB-Bax1^ΔC (Sulfurisphaera tokodaii, UniProt Q970I2); conditions: phosphate in the ATP-binding site of XPB, DNA-free heterodimer; NH4-citrate pH 7.5, PEG3350
T1 construct: gene xpb2

StXPB [1] = target: T2, StXPB (Sulfurisphaera tokodaii, UniProt Q970I2 2-439); test: EMSA; stable complex at high protein:DNA ratio; EMSA: 25 mM Tris-Cl pH 7.5, 100 mM NaCl, 5% glycerol, 1 mM DTT, room temperature 40 min; 0.8 uM forked DNA or 0.3 uM bubble DNA; 4% TBE native gel, ethidium bromide; conditions: protein: recombinant; tags: N-terminal His8 (PreScission; removed); 3 nt mismatch bubble
T2 sequence: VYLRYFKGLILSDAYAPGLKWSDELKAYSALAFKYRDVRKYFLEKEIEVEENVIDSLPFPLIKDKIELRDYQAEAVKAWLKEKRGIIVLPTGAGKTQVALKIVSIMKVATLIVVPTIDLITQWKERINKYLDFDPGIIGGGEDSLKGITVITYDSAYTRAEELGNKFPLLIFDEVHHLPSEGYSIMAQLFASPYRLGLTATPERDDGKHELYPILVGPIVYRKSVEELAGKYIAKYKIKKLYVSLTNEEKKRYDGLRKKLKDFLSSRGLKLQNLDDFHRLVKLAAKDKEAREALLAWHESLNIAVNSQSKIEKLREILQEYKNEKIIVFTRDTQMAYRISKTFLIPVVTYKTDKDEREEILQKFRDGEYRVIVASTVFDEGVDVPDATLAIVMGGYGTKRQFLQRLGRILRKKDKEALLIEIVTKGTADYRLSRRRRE

StXPB [2] = target: T2, StXPB; test: EMSA; stable complex; EMSA: 25 mM Tris-Cl pH 7.5, 100 mM NaCl, 5% glycerol, 1 mM DTT, room temperature 40 min; 0.8 uM forked DNA or 0.3 uM bubble DNA; 4% TBE native gel, ethidium bromide; conditions: protein: recombinant, tags: N-terminal His8 (PreScission; removed)
StXPB [3] = target: T2, StXPB; test: EMSA; lower affinity than with Bax1; EMSA: 25 mM Tris-Cl pH 7.5, 100 mM NaCl, 5% glycerol, 1 mM DTT, room temperature 40 min; 0.8 uM forked DNA or 0.3 uM bubble DNA; 4% TBE native gel, ethidium bromide; conditions: protein: recombinant; tags: N-terminal His8 (PreScission; removed); fork: 22 bp duplex, 10 nt arms

T1 sequence (Q970I1 2-373 partner, one chain of several): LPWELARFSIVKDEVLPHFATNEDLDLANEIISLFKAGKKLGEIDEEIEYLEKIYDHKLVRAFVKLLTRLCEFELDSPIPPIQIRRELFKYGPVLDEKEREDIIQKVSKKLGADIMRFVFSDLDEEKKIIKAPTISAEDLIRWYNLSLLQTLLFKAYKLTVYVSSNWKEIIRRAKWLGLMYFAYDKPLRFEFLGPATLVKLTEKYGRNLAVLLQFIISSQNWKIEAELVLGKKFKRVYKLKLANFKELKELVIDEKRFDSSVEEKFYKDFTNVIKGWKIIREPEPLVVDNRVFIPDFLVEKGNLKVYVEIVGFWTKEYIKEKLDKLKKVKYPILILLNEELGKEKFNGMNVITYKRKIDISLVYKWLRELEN

O=P(O)(O)O [phosphate ion] was tested, and the “X-ray crystallography, 2.96 Å” value (StXPB-Bax1^ΔC) was “the ATP binding site of XPB contains a bound phosphate ion”.

B1: bubble-3 DNA (dsDNA)
DNA 1: TAGTCACAGCTGATTTTGCTCTGCTCCATAGT
DNA 2: ACTATGGAGCAGAGCTTTATCAGCTGTGACTA
B1: binds (StXPB [1]).

B2: bubble-4 DNA (dsDNA)
DNA 1: TAGTCACAGCTGATTTTTCTCTGCTCCATAGT
DNA 2: ACTATGGAGCAGAGTTTTATCAGCTGTGACTA
B2: binds (StXPB [2]; 4 nt mismatch bubble).

B3: forked DNA (dsDNA)
DNA 1: TAGTCACAGCTGATTGCGCTCTGCTCCATAGT
DNA 2: TGATACTTCGAGAGCGCAATCAGCTGTGACTA
B3: binds (StXPB [3]).

B4: bubble-5 DNA (dsDNA)
DNA 1: TAGTCACAGCTGATTTTTCTCTGCTCCATAGT
DNA 2: ACTATGGAGCAGAGTTTTTTCAGCTGTGACTA
B4: binds (StXPB [2]; 32 nt strands, blunt, internal 5 nt T:T mismatch bubble).
